Laboratory results taken from patent US20230365636A1, “BIOORTHOGONAL REPORTER GENE SYSTEM” (priority 2020, published 2023).

Assays:
[1] = target: T1, reporter protein DTPA-V5-TMD-mRuby3 (DTPA-R) on Jurkat cells (Homo sapiens, UniProt P80188, C107S/D67E/D97E/I100T/I61A/I75T/K154S/K66P/K70L/K95M/L127F/L56R/L62P/L90R/M71L/N85D/P68L/Q48H/Q69L/R101M/R63P/S119N/S147Q/S88A/T156S/T74Q/V53Q/W99L/Y158L/Y72T); assay: Competition radioligand binding assay (Y-90 radioligand vs Y-89 charged chelator) on Jurkat cells; conditions: competition of fixed amount of Y-90 radioligand by dilution series of Y-89 charged chelator, FIG. 14A
T1 construct: to Jurkat cells expressing the reporter protein DTPA-V5-TMD-mRuby3 was assessed; expressed in transfected cells; host or cells: Jurkat (human T-cell line), stably modified
T1 sequence (P80188 21-197 with the stated changes): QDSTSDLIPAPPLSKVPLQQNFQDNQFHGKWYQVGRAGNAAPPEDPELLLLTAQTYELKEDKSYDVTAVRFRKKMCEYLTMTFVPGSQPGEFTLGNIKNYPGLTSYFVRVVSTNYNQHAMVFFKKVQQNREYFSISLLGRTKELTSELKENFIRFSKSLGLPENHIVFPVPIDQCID
Description: The binding of different radioligands to cells that express the DTPA-R or Colchi-R was shown in binding assays. To this end, Jurkat or PC3 cells that stably express the respective reporter protein of the invention were cultivated, counted and a defined concentration was incubated together with the radioligand in PBS with 2% BSA for 1 h at 37° C. Subsequently, the cells were washed twice with PBS with 2% BSA and finally in the cell-bound fraction and the supernatant fraction the respective radioactivity was detected. (A) NH2-Bn-CHX-A″-DTPA⋅Y-90 binding was competed with a non-radioactive competitor NH2-Bn-CHX-A″-DTPA⋅Y-89. […] (C) A comparative binding assay with ^18F-Py-Ahx-DTPA and ^18F-Py-Glu-Glu-PEG(4)-Colchicine to Jurkat cells expressing either DTPA-R or Colchi-R proving the orthogonal functionality of the two reporter protein & reporter probe pairs.
For the sensitive and specific detection of cells that are labeled with the reporter gene of the invention, the binding between the Anticalin binding protein and the radioligand is of utmost importance. For this reason, the binding of different radioligands to cells that were stably modified with the reporter genes was studies in vitro (FIG. 14). At first, the binding of the ligand domain for the DTPA-R (NH2-CHX-A″-DTPA) to Jurkat cells expressing the reporter protein DTPA-V5-TMD-mRuby3 was assessed. […]

[2] = target: DTPA-V5-TMD-mRuby3 (human); assay: Flow cytometry of lentivirally transduced Jurkat cells stained with Alexa Fluor 488-conjugated SV5-PK1 against the extracellular V5-tag. Target printed as DTPA-mRuby3.
CL31d-V5-CD4TMD (human) [3] = assay: Flow cytometry of lentivirally transduced Jurkat cells stained with Alexa Fluor 488-conjugated SV5-PK1 against the extracellular V5-tag. Target printed as DTPA-TMD.
Chain of CL31d-V5-CD4TMD (human) (chain, as listed by the source): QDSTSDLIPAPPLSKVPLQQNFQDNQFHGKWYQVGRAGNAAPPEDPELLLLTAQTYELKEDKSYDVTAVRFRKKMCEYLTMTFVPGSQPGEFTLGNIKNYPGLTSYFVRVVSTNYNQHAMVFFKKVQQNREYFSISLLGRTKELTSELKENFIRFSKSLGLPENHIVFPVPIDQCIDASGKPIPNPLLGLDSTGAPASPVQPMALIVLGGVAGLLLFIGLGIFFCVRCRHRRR

DTPA-miRFP720 = assay: Flow cytometry of lentivirally transduced Jurkat cells stained with Alexa Fluor 488-conjugated SV5-PK1 against the extracellular V5-tag. Target printed as DTPA-miRFP720.
CL31d-V5-CD4TMD (human) [4] = assay: Flow cytometry of retrovirally transduced Jurkat cells after FACS sorting of the 10% highest expressing cells. Staining with AlexaFluor488-conjugated SV5-PK1. Target printed as CL31d-V5-TMD.
[5] = target: Colchi-V5-TMD-mRuby3 (human); assay: Magnetic-activated cell separation with SV5-PK1 and anti-mouse IgG microbeads, read by flow cytometry for mRuby3. Cells: Jurkat Colchi-V5-TMD-mRuby3.
[6] = target: DTPA-V5-TMD-mRuby3 (human); assay: Magnetic-activated cell separation with SV5-PK1 and anti-mouse IgG microbeads, read by flow cytometry for mRuby3. Cells: Jurkat DTPA-V5-TMD-mRuby3.
scFv(huC825)-V5-CD4TMD [7] = assay: Flow cytometry of retrovirally transduced Jurkat cells after FACS sorting of the 10% highest expressing cells. Staining with AlexaFluor488-conjugated SV5-PK1. Target printed as huC825-V5-TMD.
scFv(muC825)-V5-CD4TMD [8] = assay: Flow cytometry of retrovirally transduced Jurkat cells after FACS sorting of the 10% highest expressing cells. Staining with AlexaFluor488-conjugated SV5-PK1. Target printed as muC825-V5-TMD.
CL31d-V5-CD4TMD (human) [9] = assay: Quantification of the SV5-PK1 western blot signals with LI-COR software. The y axis is fold change [relative].
Colchi-V5-TMD (human) = assay: as above
DTPA-miRFP703 = assay: Flow cytometry of lentivirally transduced Jurkat cells stained with Alexa Fluor 488-conjugated SV5-PK1 against the extracellular V5-tag. Target printed as DTPA-miRFP703.
CL31d-V5-CD4TMD (human) [10] = assay: flow cytometry, SV5-PK1-AlexaFluor488 on transduced Jurkat cells; the filing reads it as surface expression level
scFv(huC825)-V5-CD4TMD [11] = assay: as above
scFv(muC825)-V5-CD4TMD [12] = assay: as above

Row | Compound | IC50 [1] [nM] | MFI [2] | MFI (CL31d-V5-CD4TMD (human) [3]) | MFI (DTPA-miRFP720) | MFI (CL31d-V5-CD4TMD (human) [4]) | % mRuby3-positive cells in the MACS eluate [5] [%] | % mRuby3-positive cells in the MACS flow through [5] [%] | % mRuby3-positive cells in the MACS eluate [6] [%] | % mRuby3-positive cells in the MACS flow through [6] [%] | MFI (scFv(huC825)-V5-CD4TMD [7]) | MFI (scFv(muC825)-V5-CD4TMD [8]) | fold increase of the quantified V5 band signal, lane 4 over lane 2 (DTPA-V5-TMD-mRuby3) (CL31d-V5-CD4TMD (human) [9]) [fold] | fold increase of the quantified V5 band signal, lane 5 over lane 3 (Colchi-V5-TMD-mRuby3) (Colchi-V5-TMD (human)) [fold] | MFI (DTPA-miRFP703) | Median Fluorescence Intensity (MFI) (CL31d-V5-CD4TMD (human) [10]) | Median Fluorescence Intensity (MFI) (scFv(huC825)-V5-CD4TMD [11]) | Median Fluorescence Intensity (MFI) (scFv(muC825)-V5-CD4TMD [12])
1 | Nc1ccc(C[C@H](CN(CC(=O)O)[C@H]2CCCC[C@@H]2N(CC(=O)O)CC(=O)O)N(CC(=O)O)CC(=O)O)cc1 [NH2-CHX-A″-DTPA, [(R)-2-amino-3-(4-aminophenyl)propyl]-trans-(S,S)-cyclohexane-1,2-diaminepentaacetic acid] | 1.4 |  |  |  |  |  |  |  |  |  |  |  |  |  |  |  | 
2 | monoclonal anti-V5-antibody SV5-PK1 |  | 1740 | 18500 | 2550 | 20600 | 99 | 1.5 | 98.5 | 0.8 | 6200 | 7400 | 3.7 | 5.4 | 2330 | 6560 | 1080 | 1130
